Laboratory results from US20240317847A1 (Bayer, published 2024).
Numbering of substitutions follows the chain as printed.

T1: human IL2Ra (human, UniProt P01589 22-240, limits assumed)
T1 construct: bought protein, coated on the plate; also called hIL2RA; IL-2 receptor alpha
T1 sequence (looked up): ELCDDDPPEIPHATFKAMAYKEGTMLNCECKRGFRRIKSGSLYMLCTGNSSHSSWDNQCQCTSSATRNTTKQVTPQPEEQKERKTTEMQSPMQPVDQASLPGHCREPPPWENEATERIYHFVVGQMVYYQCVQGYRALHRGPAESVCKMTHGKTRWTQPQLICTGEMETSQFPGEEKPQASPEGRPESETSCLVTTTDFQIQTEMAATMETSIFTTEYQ

T2: human IL-11 (human, UniProt P20809 22-199)
T2 sequence: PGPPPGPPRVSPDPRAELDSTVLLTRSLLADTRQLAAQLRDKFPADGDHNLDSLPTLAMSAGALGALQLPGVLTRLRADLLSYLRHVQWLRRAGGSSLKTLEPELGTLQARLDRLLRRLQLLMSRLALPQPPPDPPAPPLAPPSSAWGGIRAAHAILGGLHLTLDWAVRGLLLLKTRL

T3: murine IL-11 (mouse, UniProt P47873 22-199)
T3 sequence: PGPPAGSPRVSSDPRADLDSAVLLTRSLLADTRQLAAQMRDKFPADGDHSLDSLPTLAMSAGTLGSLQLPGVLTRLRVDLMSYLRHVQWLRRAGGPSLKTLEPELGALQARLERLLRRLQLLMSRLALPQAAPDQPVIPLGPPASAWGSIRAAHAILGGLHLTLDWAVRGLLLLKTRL

B1: TPP-26299 (antibody, V domains shown)
VH: EVQLLESGGGLVQPGGSLRLSCAASGFTFSSYGMHWVRQAPGKGLEWVSVISYDGSYKYYADSVKGRFTISRDNSKNTLYLQMNSLRAEDTAVYYCAAGVPDYWGQGTLVTVSS
VL: QSVLTQPPSASGTPGQRVTISCTGSSSNIGAGYDVHWYQQLPGTAPKLLIYSNNERPSGVPDRFSGSKSGTSASLAISGLRSEDEADYYCAAWDDSLYGPVFGGGTKLTVL
B2: TPP-26300 (antibody, V domains shown)
VH: B1 VH
VL: B1 VL with D95S, Y98N
B3: TPP-26319 (antibody, V domains shown)
VH: B1 VH
VL: B1 VL with R56K, Y98N
B4: TPP-26318 (antibody, V domains shown)
VH: B1 VH
VL: B1 VL with D34F, Y98N
B5: TPP-26313 (antibody, V domains shown)
VH: B1 VH
VL: B1 VL with G32Y, Y98N
B6: TPP-26310 (antibody, V domains shown)
VH: B1 VH
VL: B1 VL with S58W, Y98N
B7: TPP-26309 (antibody, V domains shown)
VH: B1 VH
VL: B1 VL with D95F, Y98N
B8: TPP-26317 (antibody, V domains shown)
VH: B1 VH
VL: B1 VL with G32E, Y98N
B9: TPP-26306 (antibody, V domains shown)
VH: B1 VH
VL: B1 VL with D95Q, Y98N
B10: TPP-26320 (antibody, V domains shown)
VH: B1 VH
VL: B1 VL with N54E, Y98N
B11: TPP-26311 (antibody, V domains shown)
VH: B1 VH
VL: B1 VL with V35H, Y98N
B12: TPP-26316 (antibody, V domains shown)
VH: B1 VH
VL: B1 VL with D95M, Y98N
B13: TPP-26315 (antibody, V domains shown)
VH: B1 VH
VL: B1 VL with G32H, Y98N
B14: TPP-26303 (antibody, V domains shown)
VH: B1 VH
VL: B1 VL with S58E, Y98N
B15: TPP-26304 (antibody, V domains shown)
VH: B1 VH
VL: B1 VL with G30W, Y98N
B16: TPP-26302 (antibody, V domains shown)
VH: B1 VH
VL: B1 VL with A91S, Y98N
B17: TPP-26321 (antibody, V domains shown)
VH: B1 VH
VL: B1 VL with D95L, Y98N
B18: TPP-26308 (antibody, V domains shown)
VH: B1 VH
VL: B1 VL with D95V, Y98N
B19: TPP-26314 (antibody, V domains shown)
VH: B1 VH
VL: B1 VL with D95W, Y98N
B20: TPP-26307 (antibody, V domains shown)
VH: B1 VH
VL: B1 VL with D95I, Y98N

These binders were tested against T1, human IL2Ra (assay: IL2Ra direct binding ELISA, signal ratio to isotype control).
Method: IL2RA (Peprotech, Germany, #200-02RC) was coated at 1 or 0 μg/ml (buffer only control) in 30 μl coating buffer (Candor, #113500) per well on a 384 well microtiter plate (Maxisorb, Nunc, #460518) over night at 4-8° C. After two washes with 50 μl/well washing buffer (PBS+0.05% Tween, pH 7.4), the plates were incubated for two hours at room temperature with 50 μl/well SmartBlock (Candor, #113500). After blocking, the plates were washed three times with washing buffer. Then, a dilution series of the respective antibody (1E-7 [M] down to 2E-13 [M]) in PBS+0.05% Tween, 10% SmartBlock were added in 30 μl to the microtiter plate and incubated for 90 min at room temperature. After three additional washes, 30 μl anti mouse IgG HRP-conjugated antibody (Biotechne, HAF007), diluted 1:1000 in PBS+0.05% Tween (pH 7.4), were added per well and incubated for one hour. After three additional washes, a mixture of Amplex red (Invitrogen, #12222, 10 mM stock solution in DMSO) 1:1000 diluted in PBS and H2O2 (30%, Merck, #107209)) diluted 1:10000 in PBS were added as substrate with 30 μl per well and incubated for 20 min in the dark. Relative fluorescence was measured with a microtiter plate reader at 535/590 nm.
Next, the 42 antibodies were subjected to an IL2Ra binding ELISA as described in Example 20.

Row | Binder | hIL2RA ELISA Binding: Ratio to Isotpye
1 | B1 | 96 ratio
2 | B2 | 447 ratio
3 | B3 | 235 ratio
4 | B4 | 267 ratio
5 | B5 | 195 ratio
6 | B6 | 231 ratio
7 | B7 | 234 ratio
8 | B8 | 31 ratio
9 | B9 | 232 ratio
10 | B10 | 260 ratio
11 | B11 | 292 ratio
12 | B12 | 221 ratio
13 | B13 | 205 ratio
14 | B14 | 481 ratio
15 | B15 | 436 ratio
16 | B16 | 522 ratio
17 | B17 | 182 ratio
18 | B18 | 188 ratio
19 | B19 | 455 ratio
20 | B20 | 176 ratio

These binders were tested against T2, human IL-11 (assay: cell-based or functional assay).

Row | Binder | RGA Efficacy (%) | RGA IC50
21 | B1 | 70.1% | 3.1 nM
22 | B2 | 75.5% | 3.3 nM
23 | B3 | 48.6% | 7.4 nM
24 | B4 | 45.9% | 2.4 nM
25 | B5 | 76.1% | 1.7 nM
26 | B6 | 59.5% | 4.5 nM
27 | B7 | 63.9% | 1.5 nM
28 | B8 | 69.9% | 0.99 nM
29 | B9 | 70% | 2.2 nM
30 | B10 | 70.3% | 7.4 nM
31 | B11 | 38.1% | 1.9 nM
32 | B12 | 69.4% | 1.6 nM
33 | B13 | 68.3% | 1.7 nM
34 | B14 | 70.2% | 22 nM
35 | B15 | 70.4% | 5.9 nM
36 | B16 | 65.8% | 22 nM
37 | B17 | 71.3% | 2.1 nM
38 | B18 | 63.6% | 5.9 nM
39 | B19 | 69.3% | 1.1 nM
40 | B20 | 52.7% | 5.3 nM

The binders below were run against T3, murine IL-11 (assay: cell-based or functional assay).

Row | Binder | RGA Efficacy (%) | RGA IC50
41 | B1 | 96.9% | 0.94 nM
42 | B2 | 94.9% | 1.1 nM
43 | B3 | 91.1% | 1.5 nM
44 | B4 | 82.3% | 4.7 nM
45 | B5 | 96.2% | 0.66 nM
46 | B6 | 94.3% | 1.1 nM
47 | B7 | 92.2% | 0.94 nM
48 | B8 | 93.2% | 1.2 nM
49 | B9 | 96.4% | 1.5 nM
50 | B10 | 100% | 1.5 nM
51 | B11 | 86.2% | 2.2 nM
52 | B12 | 90.4% | 1 nM
53 | B13 | 91.5% | 1.5 nM
54 | B14 | 95.7% | 2.3 nM
55 | B15 | 95.2% | 1.2 nM
56 | B16 | 94.3% | 1.1 nM
57 | B17 | 93.5% | 1.1 nM
58 | B18 | 91.6% | 1.3 nM
59 | B19 | 94.4% | 0.8 nM
60 | B20 | 92.3% | 1.9 nM
